From patent publication US20250152729A1 (CANCER RESEARCH TECHNOLOGY, published 2025)
Numbering of substitutions follows the chain as printed.

B1: mouse 5E3 Fab fragment (Fab, V domains shown)
VH: QVQLQQPGAELVMPGASVKMSCKASGYTFTDYWMHWVKQRPGQGLEWIGAIDTSDSYTSYNQKFKGKATLTVDESSSTAYMQLSSLTSEDSAVYYCARDYGNFYYYAMDYWGQGTSVTVSS
VL: QAVVTQESALTTSPGETVTLTCRSSTGAVTTSNYANWVQEKPDHLFTGLIGGTNNRAPGVPARFSGSLIGDKAALTITGAQTEDEAIYFCALWYSNHWVFGGGTKLTVL
notes: Fab from pEU1.3 Fab vector (human CH1 and part of hinge) with a whole human light chain constant; also called Mouse 5E3 (KD Fab)
B2: 5Hg1-5Lg1 Fab fragment (Fab, V domains shown)
VH: QVQLVQSGAEVKKPGASVKVSCKASGYTFTDYWMHWVRQAPGQGLEWMGAIDTSDSYTSYNQKFKGRVTMTRDTSTSTVYMELSSLRSEDTAVYYCARDYGNFYYYAMDYWGQGTLVTVSS
VL: QAVVTQEPSLTVSPGGTVTLTCRSSTGAVTTSNYANWFQQKPGQAPRTLIYGTNNRAPWTPARFSGSLLGGKAALTLSGAQPEDEAEYYCALWYSNHWVFGGGTKLTVL
notes: Fab from pEU1.3 Fab vector (human CH1 and part of hinge) with a whole human light chain constant
B3: 5Hg2-5Lg2 Fab fragment (Fab, V domains shown)
VH: B2 VH with G44R, M70I, T76A, V79A
VL: B2 VL with S78L
notes: as for B2
B4: C0120904 (antibody, V domains shown)
VH: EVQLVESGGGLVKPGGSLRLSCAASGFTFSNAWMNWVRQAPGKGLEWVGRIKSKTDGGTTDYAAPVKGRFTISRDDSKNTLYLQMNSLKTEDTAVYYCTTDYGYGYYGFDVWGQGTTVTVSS
VL: SYELTQPPSVSVSPGQTATISCSGNKLGDGYVSWYQQKPGQSPVLVIYQDSKRPSGIPQRYSGSNSGNTATLTISGTQAIDEADYYCQAWDSSTVVFGGGTKVTVL
notes: un-purified fully human phage display IgG, primary screen; also called C0120904 un-purified human IgG1

Legend:
[1] = biological target: T1, recombinant cynomolgus SEMA4A AviHis10, biotinylated (cynomolgus, UniProt Q9H3S1 32-677 (human entry), biotin on the Avi tag (BirA)); experiment: BLI (OctetRED), biotinylated SEMA4A on streptavidin tip, Fab as analyte, 1:1 model
T1 construct: The text says amino acids 32-679 of G7NV79 with C-terminal Avi tag and His10 tag; also called Cyno SEMA4A AviHis10; cynoSEMA4A
T1 chain: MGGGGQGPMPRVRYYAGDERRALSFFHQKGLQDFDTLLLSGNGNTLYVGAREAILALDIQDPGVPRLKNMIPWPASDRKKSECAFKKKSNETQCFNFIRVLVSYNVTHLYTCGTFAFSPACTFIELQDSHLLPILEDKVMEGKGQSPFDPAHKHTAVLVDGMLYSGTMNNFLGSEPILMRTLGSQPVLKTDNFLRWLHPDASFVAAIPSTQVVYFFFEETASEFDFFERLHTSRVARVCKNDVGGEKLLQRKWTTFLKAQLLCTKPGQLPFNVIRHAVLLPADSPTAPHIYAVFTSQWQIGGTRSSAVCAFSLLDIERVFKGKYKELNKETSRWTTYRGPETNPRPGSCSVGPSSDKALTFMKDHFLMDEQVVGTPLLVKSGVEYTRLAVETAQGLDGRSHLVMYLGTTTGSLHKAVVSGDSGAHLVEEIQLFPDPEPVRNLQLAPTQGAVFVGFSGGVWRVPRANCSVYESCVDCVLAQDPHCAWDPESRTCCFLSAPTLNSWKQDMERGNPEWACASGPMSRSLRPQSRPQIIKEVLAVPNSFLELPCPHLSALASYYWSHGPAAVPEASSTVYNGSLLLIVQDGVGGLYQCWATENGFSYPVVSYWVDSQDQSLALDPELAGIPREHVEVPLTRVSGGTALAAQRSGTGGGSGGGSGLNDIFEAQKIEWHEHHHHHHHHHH
Experimental: (§1) An Octet Kinetics buffer (PBS containing 0.01% (v/v) BSA and 0.002% (v/v) Tween20) is typically used as the diluent buffer for the analyte samples and as the flow buffer during the dissociation phase. The experimental data is recorded as shift in interference pattern (nm) over time, which is directly proportional to the optical thickness at the biosensor tip, which in turn is an approximate measure of the mass of analyte bound. The proprietary Octet Data Analysis software package can then be used to process data and fit binding models to the data sets. Returned association (ka, M-1 s-1) and dissociation (kd, s-1) rate constants allow calculation of dissociation (KD, M) affinity constants.
(§2) The affinity of binding between the analytes (humanised and phage display derived IgGs as human Alya IgG1s and Fabs) and human SEMA4A and cynomolgus SEMA4A, was estimated using assays in which the biotinylated SEMA4A antigen was captured on a streptavidin sensor tip. A fresh sensor tip was used for each measurement and no regeneration was used. A series of dilutions of the lead Fabs and human Alya IgG1s (3.25-240 nM) were individually placed in contact with the ligand surface for a sufficient amount of time to observe sensorgrams that could be fitted to an appropriate binding model with confidence (typically 5 minutes), followed by an appropriate length of dissociation time (typically 10 minutes). Blank reference (0 nM analyte) data were subtracted from each dataset to reduce the impact of any buffer artefacts or non-specific binding effects. A 1:1 binding model was then fitted simultaneously to the data from each analyte titration using the Octet Evaluation software (Table 8).

[2] = biological target: T2, recombinant human SEMA4A AviHis10, biotinylated (human, UniProt Q9H3S1 33-683, biotin on the Avi tag (BirA)); experiment: as above
T2 construct: The text says amino acids 33-683 of Q9H3S1 with C-terminal Avi tag and His10 tag; also called avi-SEMA4A-His10
T2 sequence: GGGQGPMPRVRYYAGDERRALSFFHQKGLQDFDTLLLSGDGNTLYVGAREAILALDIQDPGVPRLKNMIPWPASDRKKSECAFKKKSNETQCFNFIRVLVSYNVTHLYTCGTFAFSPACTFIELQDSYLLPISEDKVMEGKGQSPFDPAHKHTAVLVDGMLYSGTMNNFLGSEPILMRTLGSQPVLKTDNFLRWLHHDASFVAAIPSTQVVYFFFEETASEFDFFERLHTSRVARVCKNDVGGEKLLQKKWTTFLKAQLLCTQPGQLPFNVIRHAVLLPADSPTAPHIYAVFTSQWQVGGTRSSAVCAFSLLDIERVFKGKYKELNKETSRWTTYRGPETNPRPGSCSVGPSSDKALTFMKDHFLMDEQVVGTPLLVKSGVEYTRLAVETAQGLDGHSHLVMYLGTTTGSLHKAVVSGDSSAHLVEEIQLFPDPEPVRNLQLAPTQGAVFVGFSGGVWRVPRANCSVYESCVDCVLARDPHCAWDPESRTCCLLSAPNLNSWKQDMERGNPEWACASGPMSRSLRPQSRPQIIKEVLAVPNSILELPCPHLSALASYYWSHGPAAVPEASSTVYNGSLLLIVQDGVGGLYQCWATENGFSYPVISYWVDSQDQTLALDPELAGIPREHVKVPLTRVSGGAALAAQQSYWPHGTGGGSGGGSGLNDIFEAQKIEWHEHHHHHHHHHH
Experimental: as §1, §2

[3] = biological target: T3, human SEMA4A expressed on cells (UniProt ID Q9H3S1, isoform 1) (human, UniProt Q9H3S1 33-761); experiment: direct binding of un-purified human IgG1 to MM.1S cells endogenously expressing human SEMA4A (Mirrorball, anti-human Alexa Fluor 647); single concentration, 1.56 % final
T3 construct: Cell-surface SEMA4A: endogenous on MM.1S, NCI-H929 and Karpas-25 cells, or expi293 cells transfected with Origene SC323738; also called human Semaphorin4A; SEMA4A endogenously expressed on MM.1S cells
T3 sequence: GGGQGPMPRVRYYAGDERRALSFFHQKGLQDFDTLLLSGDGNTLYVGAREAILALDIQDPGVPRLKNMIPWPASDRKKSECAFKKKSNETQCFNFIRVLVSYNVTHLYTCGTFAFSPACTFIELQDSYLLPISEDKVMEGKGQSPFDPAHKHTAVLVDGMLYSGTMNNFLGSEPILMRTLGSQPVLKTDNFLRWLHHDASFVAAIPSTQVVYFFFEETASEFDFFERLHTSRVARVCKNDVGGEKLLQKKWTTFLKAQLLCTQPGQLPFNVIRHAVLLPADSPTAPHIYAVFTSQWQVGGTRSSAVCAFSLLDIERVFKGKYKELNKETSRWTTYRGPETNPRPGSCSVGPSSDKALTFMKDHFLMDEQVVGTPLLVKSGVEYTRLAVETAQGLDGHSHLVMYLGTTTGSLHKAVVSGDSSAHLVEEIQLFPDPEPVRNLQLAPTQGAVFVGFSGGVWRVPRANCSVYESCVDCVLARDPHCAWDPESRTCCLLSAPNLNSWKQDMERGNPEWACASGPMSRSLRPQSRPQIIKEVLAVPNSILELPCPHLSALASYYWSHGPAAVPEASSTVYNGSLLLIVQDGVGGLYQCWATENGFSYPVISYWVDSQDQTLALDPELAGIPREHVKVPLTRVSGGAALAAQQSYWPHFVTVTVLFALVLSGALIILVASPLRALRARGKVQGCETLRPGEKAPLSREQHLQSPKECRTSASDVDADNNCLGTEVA
Experimental: The MM.1S binding assay assessed the ability of the un-purified human IgG1s to bind directly to human SEMA4A that was endogenously expressed by MM.1S cells. Direct binding of a single concentration of un-purified human IgG1s to MM.1S cells was measured via an anti-human secondary labelled with Alexa Fluor 647 (Invitrogen, A21445). 10 μl undiluted un-purified IgG, contained in Expi293 expression medium (Gibco, UK, A1435101), were added to the assay plate (Greiner Bio-one, UK, 781906), followed by 10 μl 8 nM anti-human Alexa Fluor 647 and 20 μl MM.1S cell suspension containing 1,500 cells. The assay plate was incubated for 4 hours at room temperature in the dark prior to reading on a Mirrorball fluorescence cytometer (SPT Labtech, UK) using a 640 nm laser for excitation and measuring emission in the FL-4 channel (650-690 nm). Data was analysed as Count x median mean intensity (x FLU). All dilutions were performed in Hanks' balanced salt solution (Sigma, UK; cat: H8264) containing 0.1% (w/v) BSA (Sigma, UK; cat: A9576). Data were analysed and graphed using GraphPad Prism software (GraphPad Software, Inc, La Jolla, CA).

Row | Binder | Kd [1] | Kd [2] | binding result [3]
1 | B1 | 9 nM | 9 nM | –
2 | B2 | 73 nM | 66 nM | –
3 | B3 | 48 nM | 41 nM | –
4 | B4 | – | – | binds
